Laboratory results taken from US9549967B2, “Regulation of sodium channels by PLUNC proteins” (The University of North Carolina at Chapel Hill, priority 2009, dated 2017).

Molecular target: T1, α, β and γ ENaC subunits (Rattus norvegicus, UniProt P37089+P37090+P37091)
T1 construct: expressed in transfected cells; host or cells: Xenopus oocytes (cRNA injection), lysates
T1 sequence (P37089 1-698): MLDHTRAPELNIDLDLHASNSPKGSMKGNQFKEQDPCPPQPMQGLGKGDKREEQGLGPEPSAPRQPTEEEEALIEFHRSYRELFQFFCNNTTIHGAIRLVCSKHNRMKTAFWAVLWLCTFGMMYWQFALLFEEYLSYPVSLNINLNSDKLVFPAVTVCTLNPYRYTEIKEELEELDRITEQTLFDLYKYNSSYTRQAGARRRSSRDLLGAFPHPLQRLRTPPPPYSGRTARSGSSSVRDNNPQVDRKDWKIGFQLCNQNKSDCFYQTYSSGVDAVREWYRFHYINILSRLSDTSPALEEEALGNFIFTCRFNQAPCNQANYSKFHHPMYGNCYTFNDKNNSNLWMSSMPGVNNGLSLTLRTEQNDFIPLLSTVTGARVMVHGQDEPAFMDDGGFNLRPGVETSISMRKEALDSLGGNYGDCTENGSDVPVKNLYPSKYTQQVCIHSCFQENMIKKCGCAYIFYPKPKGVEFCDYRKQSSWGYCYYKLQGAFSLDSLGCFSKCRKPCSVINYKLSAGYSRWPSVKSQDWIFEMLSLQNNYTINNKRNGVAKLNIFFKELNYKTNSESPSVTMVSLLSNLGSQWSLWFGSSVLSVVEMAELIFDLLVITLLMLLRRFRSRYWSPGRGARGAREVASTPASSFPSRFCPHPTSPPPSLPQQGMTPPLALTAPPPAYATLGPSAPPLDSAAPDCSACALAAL
T1 sequence (P37090 1-638): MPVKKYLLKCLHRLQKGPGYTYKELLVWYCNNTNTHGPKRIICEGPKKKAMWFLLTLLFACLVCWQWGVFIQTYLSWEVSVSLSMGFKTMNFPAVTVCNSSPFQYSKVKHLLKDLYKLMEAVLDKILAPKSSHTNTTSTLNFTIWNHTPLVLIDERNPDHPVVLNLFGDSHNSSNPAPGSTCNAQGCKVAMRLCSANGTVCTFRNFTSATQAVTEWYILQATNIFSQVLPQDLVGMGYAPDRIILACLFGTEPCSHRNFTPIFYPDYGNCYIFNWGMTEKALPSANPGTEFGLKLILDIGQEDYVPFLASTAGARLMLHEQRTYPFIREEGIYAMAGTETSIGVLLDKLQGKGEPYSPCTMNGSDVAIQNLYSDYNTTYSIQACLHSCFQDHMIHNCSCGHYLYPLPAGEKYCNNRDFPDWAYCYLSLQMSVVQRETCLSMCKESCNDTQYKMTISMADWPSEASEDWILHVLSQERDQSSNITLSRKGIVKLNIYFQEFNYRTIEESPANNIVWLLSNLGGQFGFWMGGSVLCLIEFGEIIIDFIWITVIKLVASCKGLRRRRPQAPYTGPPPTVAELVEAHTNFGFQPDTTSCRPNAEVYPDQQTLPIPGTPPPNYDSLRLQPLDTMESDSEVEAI
T1 sequence (P37091 1-650): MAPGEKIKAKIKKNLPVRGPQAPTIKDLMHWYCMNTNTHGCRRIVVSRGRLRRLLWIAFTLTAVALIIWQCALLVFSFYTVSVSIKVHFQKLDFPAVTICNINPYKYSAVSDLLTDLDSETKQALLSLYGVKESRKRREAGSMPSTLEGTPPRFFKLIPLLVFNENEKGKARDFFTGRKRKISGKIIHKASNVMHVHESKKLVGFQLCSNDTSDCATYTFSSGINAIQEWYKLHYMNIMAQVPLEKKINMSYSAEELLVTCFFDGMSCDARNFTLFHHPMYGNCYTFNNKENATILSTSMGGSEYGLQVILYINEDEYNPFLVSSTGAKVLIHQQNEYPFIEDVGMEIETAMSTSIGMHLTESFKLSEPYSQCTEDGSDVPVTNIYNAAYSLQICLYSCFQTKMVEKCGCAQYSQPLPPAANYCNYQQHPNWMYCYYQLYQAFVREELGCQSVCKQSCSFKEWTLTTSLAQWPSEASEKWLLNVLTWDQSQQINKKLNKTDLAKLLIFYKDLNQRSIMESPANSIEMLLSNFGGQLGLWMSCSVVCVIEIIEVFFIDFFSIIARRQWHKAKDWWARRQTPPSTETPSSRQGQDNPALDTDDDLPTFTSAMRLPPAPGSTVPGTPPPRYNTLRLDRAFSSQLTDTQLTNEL
Experiment: Co-immunoprecipitation of V5-tagged SPLUNC1 with HA-tagged ENaC subunits from Xenopus oocytes
Type: binding
Settings: anti-HA immunoprecipitation, probed for V5-tagged SPLUNC1
Experimental: Co-Immunoprecipitation: Xenopus oocytes were injected with either HA-N-Terminus or V5-C-Terminus (HA-NT/V5-CT) tagged subunits in combination with wild type (WT) untagged rat αβγENaC subunits (0.3 ng cRNA each) with or without V5-tagged SPLUNC1 and CAP2 (1 ng cRNA each). After 24 h, 40 eggs per experimental condition were lysed with buffer containing (in mM): 20 Tris, 50 NaCl, 50 NaF, 10 β-glycerophosphate, 5 Na4P2O7 pyrophosphate, 1 EDTA, pH 7.5 and protease inhibitors (complete, Roche), aprotinin (Sigma). Cell lysates were prepared by passing the eggs through a 27 G1/2 needle twice and by centrifugation at 3,600 rpm for 10 minutes at 4° C. Supernatants were transferred to new tubes and samples were spun at 14,000 rpm for 20 minutes at 4° C. Supernatants were discarded and pellets were solubilized in (mM) 50 Tris, 100 NaCl, 0.1% Triton X-100, 0.1% NP-40, 20 NaF, 10 Na4P2O7, 10 EDTA+protease inhibitor cocktail (Sigma), pH 7.5. Total inputs were taken from whole cell samples representing 4% of total protein. Solubilized proteins were incubated with 50 μl of protein A and 5 μl of anti-HA antibody (Covance) overnight while tumbling at 4° C. Samples were washed three times with (mM) 150 NaCl 50 Tris pH 7.5 buffer. Laemmli buffer was added and samples were loaded on a 15% gradient Tris-glycine gel after incubation for 10 minutes at 96° C. […]

B1: SPLUNC1: human SPLUNC1, 256 amino acid secreted PLUNC protein (SEQ ID NO:1); rSPLUNC1 = V5/6His-tagged protein purified from HEK293 media (protein, listed as Homo sapiens)
chain: MFQTGGLIVFYGLLAQTMAQFGGLPVPLDQTLPLNVNPALPLSPTGLAGSLTNALSNGLLSGGLLGILENLPLLDILKPGGGTSGGLLGGLLGKVTSVIPGLNNIIDIKVTDPQLLELGLVQSPDGHRLYVTIPLGIKLQVNTPLVGASLLRLAVKLDITAEILAVRDKQERIHLVLGDCTHSPGSLQISLLDGLGPLPIQGLLDSLTGILNKVLPELVQGNVCPLVNEVLRGLDITLVHDIVNMLIHGLQFVIKV
modifications: V5/6His tag
notes: rSPLUNC1 = V5/6His-tagged protein purified from HEK293 media
binding to ENaC subunits (co-immunoprecipitation): bound to all three ENaC subunits
